The chains are these.
B1: ADI-41484 (antibody, V domains shown)
VH: EVQLVESGPGLVKPSEALSLTCTVSGASISSYYWTWIRQSPRKGLEWIGYIYHTGRTNYNPSLKRRVTMSVDWSKNQFSLTLSSVTAADTAVYYCARLKVVPAALESAILEHHFGLDVWGQGTTVTVSS
VL: DIVMTQTPSTLSASIGDRVTLTCRASQSINRWLAWYQQKPGKAPKLLIYKASTLESGVPSRFSGSGSGTEFTLTISGLQPDDFATYYCQQYNNFPYTFGPGTKVDIK
B2: ADI-41493 (antibody, V domains shown)
VH: QVQLVQSGAEVKKPGESLKISCKGSGYSFTKYWIGWVRQLPGKGLEWMGIIYPGDSETIYSPSFQGQVTISADKSVSTAYLQWSSLKASDTAMYYCARQTFVFWGESHDAFDIWGQGTTVTVSS
VL: QPVLTQPPSASGSPGQSVTISCTGTSSDVGAHNYVSWYQQHPGKAPKLMIYEVSKRPSGVPDRFSGSKSGNTASLTVSGLQAEDEADYYCSSYAGSNNWVFGGGTKLTVL
notes: also called Ab 773; Antibody Number 773
B3: ADI-41486 (antibody, V domains shown)
VH: QVQLQQWGAGLLKPSETLSLTCSVYGGSFSGYYWSWIRQPPGKGLEWIGEINHSGSTNYNPSLKSRITISVDTSKNQFSLKLNSVTAADTAVYYCARGDYAFVTFDYWGQGTLVTVSS
VL: QSVLTQPASVSGSPGQSITISCTGTSSDVGGYNYVSWYQQHPGKAPKLMIYEVSNRPSGVSNRFSGSKSGNTASLTISGLQAEDEADYYCSSYTSSSTPVFGGGTKLTVL
notes: also called Ab 767; Antibody Number 767
B4: ADI-41485 (antibody, V domains shown)
VH: EVQLLESGPGLVRPSETLSLTCTVSGGSLDSGPHYWNWIRQPPGKGLEWIGYIYYSVSTNYNPSLKSRVTISMDTSKNQFSLNLTSVTAADTAVYYCASFQLIYGPQIWGQGKKVTVSS
VL: DIVLTQSPSSVSASVGDRVTITCRASQAISSWLIWSQHKPGKAPKVLIYAASSLQSGVPSRFSGSGSGTDFTLTISSLQPEDFATYYCQQANNFPLTFGGGTKVEIK
B5: ADI-41487 (antibody, V domains shown)
VH: QVQLVESGGGLVKPGGSLRLSCAASGFTFSTYTMNWVRQAPGKGLEWVSSISGSSAYIYYADSVKGRFTISRDNAKNSLFLQMNSLRAEDTAVYYCARLQGLVLPAVMPSYYYYSGMDVWGQGTTVTVSS
VL: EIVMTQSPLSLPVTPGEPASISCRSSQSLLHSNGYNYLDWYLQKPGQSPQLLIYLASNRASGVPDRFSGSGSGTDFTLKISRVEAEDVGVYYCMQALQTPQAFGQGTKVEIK
notes: also called Ab 768; Antibody Number 768
B6: ADI-41482 (antibody, V domains shown)
VH: QVQLVQSGAEVKKPGSSVKVSCKASGGTFGSYTINWVRQAPGQGLEWMGGIIPIFGATNYAQNFQGRVSITADKSTATAYMDLISLRSEDTAVYYCARLGRSSPLNSCTTTSCYFWGRGMDVWGQGTTVTVSS
VL: QSVLIQPASVSGSPGQSITISCTGTISDVGIYNYVSWYQQHPGKAPKLIISDVSDRPSGVSNRFSGSKSGITASLTITGLQAEDEADYYCSSYSSSSTLYVFGTGTKLTVL
B7: ADI-41492 (antibody, V domains shown)
VH: QVQLVQSGAEVRKPGSSVKVSCKASGGTFNSFVISWVRQAPGQGLEWMGRIIPILATVDYAQKFQGRVTITADKSTTTAYMELSGLTSEDTAVYYCARDPPRWDTTMADYYYQGMDVWGQGTTVTVSS
VL: DIRVTQSPASLSAFVGDRVTISCRASQSIGSFLNWYQQKPGKAPKLLIYAASSLQSGVPSRFSGSGSGTDFTLAISSLQPEDFATYYCQQSYRSTPTFGGGTKVEIK

The target in one experiment is RSV F on RSV-A2 virus (Respiratory Syncytial Virus (RSV-A2), UniProt P03420 26-574). The experiment is described as follows: cell-based or functional assay.
In the case of B1, the “Neutralization IC50 (RSV subtype A)” value is more than 25 µg/mL.

On to B2, for which the “Neutralization IC50 (RSV subtype A)” value is more than 25 µg/mL.

With B3, the “Neutralization IC50 (RSV subtype A)” value was more than 25 µg/mL.

B4: the “Neutralization IC50 (RSV subtype A)” value was more than 25 µg/mL.

Take B5: the “Neutralization IC50 (RSV subtype A)” value is more than 25 µg/mL.

As to B6, the “Neutralization IC50 (RSV subtype A)” value was more than 25 µg/mL.

Regarding B7, the “Neutralization IC50 (RSV subtype A)” value was more than 25 µg/mL.

The target of the next experiment is RSV postfusion F (postF), F ΔFP (Respiratory Syncytial Virus, UniProt P03420 26-513). In words: BLI, IgG on anti-human IgG sensor, 100 nM antigen, 1:1 fit.
For the molecule B1, the equilibrium dissociation constant (Kd) was 0.782 nM.

B2 showed a Kd of 0.372 nM.

With B3, the Kd was determined as 0.448 nM.

B4 registered a Kd of 1.02 nM.

B5 displayed a dissociation constant Kd of 0.754 nM.

Turning to B6, the equilibrium dissociation constant (Kd) turned out to be 1.49 nM.

Regarding B7, the affinity, expressed as Kd, was 54.8 nM.

The next experiment concerns the target RSV prefusion F (preF), DS-Cav1 (Respiratory Syncytial Virus, UniProt P03420 26-513). The experiment is described as above.
Regarding B1, the Kd worked out at 3.44 nM.

B2 yielded a dissociation constant (Kd) of 0.45 nM.

Consider B3, for which the affinity, expressed as Kd, was 2.86 nM.

B4 yielded a Kd of 3.01 nM.

In turn, B5 displayed a Kd of 3.12 nM.

In turn, B6 came in with a Kd of 3.37 nM.

Turning to B7, the affinity, expressed as Kd, was 182 nM.

What is called Kd is the concentration at which binding is half-saturated. Read a low Kd as tighter binding.

The values are drawn from patent publication US20260258115A1 (MAPP BIOPHARMACEUTICAL, published 2026).
